Here are results for 68 sequences from the domain aggregation screens of Martell et al. (2025).

This data set can be described thus: soluble fraction after stress (log2 fold change); higher = more stays soluble; pooled small domains, quantitative proteomics. The following applies: stress: 50 degC. The procedure, abridged:
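The stress applied to every library was 50°C. These custom libraries of small protein domains were pooled and measured at high throughput with quantitative proteomics as the read-out. Aggregation propensity is expressed as the base-two logarithm of the fold change in how much of each protein remains soluble. The higher the value, the more of that protein stays in solution.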

“HMKDVVAPMSGRVVRLMVAAGDEVVKRQALVVVEAMKMENVLTAPKEGRIKKVPVREGMTVEVGQTLVSFE”: the “soluble fraction (log2)” value is -0.221.
The result for “HMEPMNMYSSIKKVIGVVSGKGGVGKSLVTASLARMMRAKGYHVGIMDADITGPSIPKMYGLHEMA” reads 0.42; that for “HMETFGEKDLDELIGRNVELITHDGKVREGLVDSVDRYNVSLVRYLDAGEVAMMVRRREVKAVRLK”, 0.0419; that for “HMLDPYNVLGVPRDAGMDEIKKAYRKLSRTYHPDANIDNPNKAQAEEKFKQIQEAYQQIVKERTE”, -0.384.
In the case of “HMQDTQAEEGETLLDALRRIHPESSTGTLRRMLTQGRVQLDGDSVHAAKTVLSAGQRVEVVAR”, the “soluble fraction (log2)” value worked out at 0.0446.
For the sequence “HMSRGAIVTGTVIEKNQSGIYVDLGYKSDGIVPIEEFDGEESKYNVGDQIRVYVKKVDDGHGQLML”, the “soluble fraction (log2)” value is 0.126.
The result for “HMIGRIKGQLIEKKSDSVVIDVHGIGYVVYVTEKTARSLTLGDQSRDISLYSELLVKEDLLQLVGFI” reads 0.0137; that for “HMENEIPVPELVGMSEADAAAKLASLGLERDTQREATADEESVGKVLRQEPTPGEYVDEGHKVTIWVGE”, -0.0704; that for “HMHRFAVLDTVREVAAGGVAATLSIGVGRDADSFDALFKNASMALEMALSRGGDQAVVKDRMNFQFYGG”, 0.0659.
“HMGEQVAVPDVTKKSVREVNNILTSAGLRLQIEGSGISVRQDPPADTMVAPDTVVTVSFEPP”: the “soluble fraction (log2)” value stood at 0.168.
With “HMEGNFFADIRQELMRELDQEAEWSDVQILEKIDDLVLLRTRRSSLTVNEKEQLRKELFYSVRK”, the “soluble fraction (log2)” value is -0.0909.
As for “HMESLNDRIKLVFKDSGLTQMDISKRLNIAQSSVSGIISGKANPSKRTLADIADRFDVNLEWLRDGTGPMK”, the figure is 0.337; as for “HMSSEITYDKFIEMVEEGNVKEVTLQSDTLTIKPKHQDSAFSEKEYYTRQMESADQLTERLEGTGIEFHS”, 0.104.
As for “HMINLVPFELKFITAQVLDDIIKKIGINADTIILDINPKKIWVYAGEQELSDIQNIVKNVDVEDNI”, the figure is -0.443.
As for “HMKAPLTFVIEGKEYEAFDQYKTGAELKQLAGIPLDTELFLSISKPYQDELIENEKQVNLARPETEYFFVK”, the figure is -0.0489; as for “HMELVQIIGNNIRDLMTTRSVTITDLANYLNVSRQTLQNYLRGSNIIDSVKLVAVSDFFDVPVESLLQSK”, -1.04; as for “HMPDFAENAVYGKQREDSLYAHAYKHFQLGDTTTVRAAEHLSAEIYPLGQHRPKFMFLNAVTR”, 0.0766.
As for “HMTGIRVYPNPTSSELRFSVATDAALYDATGARLRVVRGSDMMDIRDLASGTYYVRFADGSTQSVVVT”, the “soluble fraction (log2)” value was -0.198.
Consider “HMVLPELRLQGLPTAVLRLINRATALADDYRRLMEIAEDGRIDEWEAPEFERISENIQRVIAAGFEVL”, for which the “soluble fraction (log2)” value is 0.0167.
As for “HMRPEVALSSRELEILEALATGKSNKELAQRLFISEATVKTHLIHIYQKLGVDTRTAAVTVARERKL”, the figure is -1.52; as for “HMFEDEYLETMYAFYETDPQALVRTGDLASSLKVSPASATEMVQRLASKGFVDYIPYKGASLTELGLAM”, -0.184.
The result for “HMVIANADVRAKFSKGKDSFVKYYFKEKVLKDGFTEEVKNNIVQALFYLQIVTRIDGESGVLIIDY” reads -0.0492; that for “HMTVIARQIPPLVPRMLDGLEAFIKLDVPFEEKERLARVQMLRSSLDRDNLDTAEIFRAVLEAYNIELQY”, 0.0196; that for “HMSQRITYTEFVQMVKDDKVEKVEVGANQYNITPKSDDKTLVKMTYYTGFIKDENLLDLLNKHKVEIDGYI”, 0.157.
As for “HMQISDVSLIAKVIDDVIDNNVKSVSDYLEGNLNVLRFLVGQVMKETKGKANPQKATELLQEKLESLNN”, the figure is -0.429.
For “HMNLYENLATHVKNAIRQGVYQPGDRLPSVRRLSEQHRVSQNTAVSAYRLLESHGWLEARPQSGFFARHP”, the “soluble fraction (log2)” value was -1.11.
The result for “HMGRFPSLTPVVIDALTAQYREHPGWTVQLHVDNLRVVLAANQTPLPSYPTIRRYLLAQGMRRQTRP” reads -0.426.
As for “HMDFSYTVGDIDEPIDSRGNSVIMLRKLAWGSNAEKLEIRRWIIDIDSERANKGVTFLTEEGPHNLVRV”, the figure is 0.128.
The result for “HMNSTSGIAGVGYWINQYRKKKGMSPVDKKSPLVRRVYDWVQEQYDEGRITIISDAELTRQTELAMEA” reads -0.771.
In the case of “HMKTSVGSKMMVMANNLSIRKSANLLSEKLADLSKGDMVEYISSTNGWNKVRYNGYVGYVSSYYLKDTGEV”, the “soluble fraction (log2)” value was -0.738.
On to “HMSGYFSDKKLNELFEQYLIMREKKGKPVVGYQLKILIDRLNQVAANTKEKIEVVSNAIAGDWNTFYPIKR”, for which the “soluble fraction (log2)” value is -0.621.
As for “HMRETELPVTIISAGRILAENLHLAGRDGGWLEAELKRRSLTAEQVLLLTVDAAGTVYLVRKEDL”, the figure is -0.0641; as for “HMKKNNTTPIPKTLNYVNIKGLSNEAVERLNKHKPSTLGQASRLEGITPAATSLISIAIKKNQLLEKAES”, 0.251.
The result for “HMQDSSGENNPQSKLTQQQVDLLMKDLKETNVEFDKLAEKYNVSIKTIRNVNTGIAWRKNDITYPIREP” reads -0.204.
As for “HMEDKFEYQGERKSLIYPTSFSELTEALGVRNMLQSIIDFATRDEDTSGYEEMKERQNEYIQEYL”, the figure is 0.0302; as for “HMLNSISIKTNKKIDFLEKNEHLVNFVYEKETMEHIYNLSYENKKDLQELQNKLSDIEGIIKINTDL”, 0.133; as for “HMQPSQTLSATVEFPDRLDRFLALAFPEVSRARFQRLIAEGHVSVEGVPATEIRHKLKAGQRVEAVIPPA”, 0.0663.
As for “HMTRRVIRAPAAGIMRSNVKLGDLVKEGDVIAWIGEHEIKAPLTGMVRGLLNDGLAVVGGFKIGDI”, the “soluble fraction (log2)” value was -0.175.
The result for “HMKSLVDLEISIVKKDMNYFVLPKINGEPLLMERISASEYKDFQLGKLSKEDIFQKHYPDYSEENIKNGRG” reads 0.145; that for “HMLETIDIFKVTGGEPFLSKDFLEILDLAIEKDLAKNITLMITTNASKFVKKILDKFIHFKRVEFTVS”, 0.0202; that for “HMEKDEYIFVDIDGAVFNPGVYKLIAGSRVIDAINLAGGLKEKAFTQNLNKARKLVDGEKIYIYLEGDEE”, -0.585.
Consider “HMSPDTREAILAAARTAFARDGYQTSLRGIARDAGVDPALVHHYFPDRATLFAKAVIESTAG”, for which the “soluble fraction (log2)” value was -0.00189.
For the sequence “HMPAAPVFLQKDLLDAGLIGQADSAARREKLGKILGIGYGNGKVMLQRLNSFGIERDAFEQAVQE”, the “soluble fraction (log2)” value was 0.0718.
Consider “HMAEVRTLLVPIELAGMRFDQVLAELLPEFSRSRLAAWIKSGDALLDGHDAKPKGVVRGGEQIEIRLA”, for which the “soluble fraction (log2)” value came out at 0.0321.
As for “HMVPLSPRFFDIFRKRKDLTRQNVDVYFRDHPTEITAFERYIKGLVSQSYIPAERADALLLVASQYKAK”, the figure is -0.784.
As to “HMDKRYYYRILGLVGEPTRDQIEAAYETRIAKLRSSDYGDDPLYARRKISEVTMAYKVLTGS”, the “soluble fraction (log2)” value is -0.281.
The result for “HMAVSTFGRITASSLNVRSGPSTDHEKVGSLAAGRVVELLEESDGWYRIENGYISTEYVTIVDPSQ” reads -0.355; that for “HMHRGEIVDGVIASVNPRSILIDIGGKSDALVHPRELERMSDEDLRSLKPGQDVSVYVIETDSDGTMLVSL”, -0.0402.
Turning to “HMLMRSPDFLIGWFQNLVAKRETFNDQVQAKNLIEAGKQHIQGEDFDRLLEVNRRLFSLLPQREQE”, the “soluble fraction (log2)” value is 0.215.
For “HMADQVLVMTRAVGQGDIVRNADIGLTSVAVDRAVATIPASQLDKIVGRHALVDLSPGQLLGSHSVGE”, the “soluble fraction (log2)” value was 0.035.
Turning to “HMAVSDPTAGGIKALMYPNPAQDRLSVALDIPAGLDKQAQMTVTDMMGRVVTQQQVTLNDGFQVFEL”, the “soluble fraction (log2)” value was 0.215.
As for “HMKVSKNKIVKGMGFHHVALKAVDFDASFKFYTEGLGMKFYTSWGEGNGKIAMLDLGDGGILELFA”, the figure is 0.0801.
The result for “HMTKLTTDERSVYLHIQNKPGVSASSIREALGYKKSKLTSILAQLLEVHKIIDTEGTGKSLKYIL” reads -0.0662; that for “HMSNSGFVKNNGKTEFYDASGRQAKSSWINISGKWYYFDLNGTMVTGWQRISNKWYYFLEDGSK”, 0.0383.
As for “HMIEYILDYLANRGVYAASQGEQQQMEDGIARYLQENGLEDGNTGAYYQKYVSNHLQQISASDLKAYFLN”, the figure is -0.529; as for “HMVPADVQHLRDIVDTMTEKQQLVYKLHVLEGYTFTEIAKLMGTSIPNVKKHYDKAILFIKNNF”, -0.909; as for “HMALPDWLDPEAWAAWKRHRKAIRKPLTEDAVALSIRELAKLRDEGYGPTSVIENAILKGWQGLYPPK”, -0.133.
Regarding “HMVSTSVTVTGDLNVRADSRADSDLVGALIPGQTVTRLAVLDNGWSKIRFDDGAGTVVEGYVLSEYLQADG”, the “soluble fraction (log2)” value worked out at 0.0817.
The result for “HMTVVLPGESLTVNIIQEGKELGQGVGYLDDGTMVVIEDGRRYIDQTIEVTVTRVLQTVAGRMIFAQLT” reads -0.646.
The result for “HMYEVVPNMKGLSYEQAATALRTAGLEPELSDSIYDDKTRPGTVLEQSPRANTKVKPGRTVYLTVNAF” reads 0.0459; that for “HMVQMKIRAYELEPNDFFIKQNMTYRVMRIQNGMIYAKHLLNSTPITFGAKSMEFVLWTGKYS”, -2.36; that for “HMLKPVVLLGARGLTDAVEKEVERALDEHGLIKIHVPSDDREERDEIYTTLADKLNAARIQAIGKMLVLW”, -0.162.
Regarding “HMTDQYEVQNLVGLTVREAQEKEGVKDIFEVREVGSEFSAEYDAGLIVRQSPDAGEQRKGEGLVIEVWVSA”, the “soluble fraction (log2)” value was determined as 0.0425.
Consider “HMDQILIHLKEGIDVTDVQPMLKALDLNVRMFNRDKNIIVISVLNRELDAIPQTIAALRPWEELFDSA”, for which the “soluble fraction (log2)” value is -0.00536.
Regarding “HMKRVVFFNGISWYHRTKELLDDMTTKYGKKGGFATPEEAEKSYWEYEERYKDRQRELQVAYLKN”, the “soluble fraction (log2)” value is -0.648.
The result for “HMDRMMQPETWGRVYQWITDDPQVPDREEVLTLIKYHYGDFGKLMKLLHRLNEGKAWTYLSEHIFPRM” reads -0.123; that for “HMPERLTYVHPDGAEPMRADKALAAFLSGRISRSRLLGSFSAGKVMAGGKPVEKKLLLRAGDALEVELPEP”, 0.139; that for “HMFTSVDVAPDLRTAKVFYSVLGRKKSDKEINIAINQKRKAFKKFMGPELHLKNIPDLHFYYD”, -0.232.
